# Data taken from patent publication US6153408A, “Altered major histocompatibility complex (MHC) determinant and methods of using the determinant” (Institut Pasteur and Institut National de la Sante et de la …, priority 1995, dated 2000).
# Values joined by “and” are separate entries in the source; they are usually repeats but may differ in a detail not shown here. Equal values may be shown once.
# Assays:
# H-2K = biological target: T1, H-2K (Mus musculus, UniProt P01902); test: Direct peptide binding assay: 125I-labeled conventional Kd from BALB/c spleen
# T1 construct: K^d molecules isolated from the spleen of BALB/c mice were then purified and iodinated; from tissue; host or cells: spleen of BALB/c mice
# T1 sequence (P01902 22-368): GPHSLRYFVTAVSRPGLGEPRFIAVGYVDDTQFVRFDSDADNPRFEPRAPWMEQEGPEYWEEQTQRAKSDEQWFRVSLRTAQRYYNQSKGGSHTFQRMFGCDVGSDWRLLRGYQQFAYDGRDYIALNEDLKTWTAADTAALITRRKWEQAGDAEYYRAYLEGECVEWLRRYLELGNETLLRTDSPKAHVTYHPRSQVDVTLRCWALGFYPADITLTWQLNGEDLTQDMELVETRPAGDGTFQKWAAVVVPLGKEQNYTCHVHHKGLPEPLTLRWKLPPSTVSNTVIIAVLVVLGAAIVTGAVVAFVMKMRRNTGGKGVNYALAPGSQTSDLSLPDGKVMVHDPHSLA
# T1 sequence (P01887 21-119 partner): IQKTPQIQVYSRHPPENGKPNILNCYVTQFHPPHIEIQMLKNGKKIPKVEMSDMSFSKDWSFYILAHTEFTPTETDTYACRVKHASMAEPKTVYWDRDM
# Procedure: Direct Peptide Binding Assay. Wells of microtiter plates are pretreated with 100 μl 2.5% glutaraldehyde in distilled water for 2 h at 20° C., washed with distilled water, and coated for 16 h at 4° C. with 100 μl of peptide diluted at 5 μg/ml either in carbonate-bicarbonate buffer, pH 9.6, or in PBS, pH 7.4 or pH 5.0. Remaining free sites are blocked by incubation for 2 h at 20° C. with BSA diluted 1% in PBS containing 0.05% Tween 20 (Tw) and 0.02% sodium azoture. After washing, purified ^125 I-HLA molecules (100 μl containing 1.5×10^5 cpm, 10^-9 M) diluted in PBS containing 1% BSA, 0.05% Tw, 0.02% sodium azoture, 1 mM PMSF, and 10 μg/ml trypsin inhibitor are added and incubated for 20 h at 20° C. After extensive washing, the radioactivity of each well is counted.
# Peptides used in this study are described in Choppin et al. (Choppin, J., Martinon, F., Gomard, E., Bahraoui, E., Connan, F., Bouillot, F., and Levy, J. -P, J. Exp. Med., 1990. 172:889 and references therein), except for HLA-Cw3 and HLA-A24 described in Maryanski, J. Ll, Pala, P., Cerottini, J. -C, and Corradin, G., J. Exp. Med. 1988. 167:1391. Binding assays were performed as described in Choppin, J., Martinon, F., Gomard, E., Bahraoui, E., Connan, F., Bouillot, F., and Levy, J. -P, J. Exp. Med., 1990. 172:889. […]
# SC-K^d -15 [1] = biological target: T2, SC-K^d -15 (Mus musculus, UniProt P01887+P01902); test: Direct peptide binding assay: 35S-labeled SC-Kd-15 on plastic-coated peptides; settings: for ^35 S-labeled SC-Kd bound to coated peptide: duplicates; for binding of peptide to SC-K^d -15 (in words): direct assay
# T2 construct: connecting residue 276 of K^d heavy chain to the first residue of β2 -microglobulin; mature mouse beta2-microglobulin, fused after the spacer (same polypeptide); expressed in transfected cells; host or cells: monkey COS-1 cells, transient
# T2 sequence (P01902+P01887 with tags, fused parts or gaps): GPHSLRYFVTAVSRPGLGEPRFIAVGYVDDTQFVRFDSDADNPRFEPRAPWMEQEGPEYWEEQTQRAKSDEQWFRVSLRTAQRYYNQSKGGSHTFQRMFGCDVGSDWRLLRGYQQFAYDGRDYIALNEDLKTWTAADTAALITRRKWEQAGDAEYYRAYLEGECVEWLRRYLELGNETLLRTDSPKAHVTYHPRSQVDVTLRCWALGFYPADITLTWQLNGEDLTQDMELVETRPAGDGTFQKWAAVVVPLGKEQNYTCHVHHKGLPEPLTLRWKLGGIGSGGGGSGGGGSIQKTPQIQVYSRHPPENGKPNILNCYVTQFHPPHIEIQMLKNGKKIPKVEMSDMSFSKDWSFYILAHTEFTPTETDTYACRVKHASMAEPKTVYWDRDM
# Procedure: (§1) Direct Peptide Binding Assay. Wells of microtiter plates are pretreated with 100 μl 2.5% glutaraldehyde in distilled water for 2 h at 20° C., washed with distilled water, […] buffer, pH 9.6, or in PBS, pH 7.4 or pH 5.0. Remaining free sites are blocked by incubation for 2 h at 20° C. with BSA diluted 1% in PBS containing 0.05% Tween 20 (Tw) and 0.02% sodium azoture. […] After extensive washing, the radioactivity of each well is counted.
# COS-1 cells (usually 10^7 cells) were transfected with pSC-K^d -15 DNA, labeled and lysed as above. […] After the final wash in PBS, SC-K^d -15 was eluted from the matrix with an equal volume of 3 M thiocyanate for 10 min on ice. After an overnight dialysis in PBS containing 0.1% NP40, 0.05% Tween and 0.2% BSA, SC-K^d -15 was used in direct binding test as below. Its purity was assessed by SDS-PAGE.
# K^d molecules isolated from the spleen of BALB/c mice were then purified and iodinated.
# HLA-DRw13 = HLA-DRw13 (Homo sapiens, UniProt P01903+P01911); test: Direct peptide binding assay: 125I-labeled HLA-DRw13 (positive control); settings: for binding of peptide to DRw13 positive control (in words): direct assay, printed DR213
# Procedure: Direct Peptide Binding Assay. Wells of microtiter plates are pretreated with 100 μl 2.5% glutaraldehyde in distilled water for 2 h at 20° C., washed with distilled water, and coated for 16 h at 4° C. with 100 μl of peptide diluted at 5 μg/ml either in carbonate-bicarbonate buffer, pH 9.6, or in PBS, pH 7.4 or pH 5.0. Remaining free sites are blocked by incubation for 2 h at 20° C. with BSA diluted 1% in PBS containing 0.05% Tween 20 (Tw) and 0.02% sodium azoture. […] After extensive washing, the radioactivity of each well is counted.
# HLA-DR3 = HLA-DR3 (Homo sapiens, UniProt P01903+P01911); test: Direct peptide binding assay: 125I-labeled HLA-DR3 (positive control); settings: for binding of peptide to HLA-DR3 positive control (in words): direct assay
# Procedure: as §1
# SC-K^d -15 [2] = biological target: T2, SC-K^d -15; test: Competition experiment, env 312-327 bound to plastic, 35S-labeled SC-Kd; type: binding; settings: Table (B) shows it for SC-Kd and H-2K
# Chain of HLA-DR3 (P01903 26-254): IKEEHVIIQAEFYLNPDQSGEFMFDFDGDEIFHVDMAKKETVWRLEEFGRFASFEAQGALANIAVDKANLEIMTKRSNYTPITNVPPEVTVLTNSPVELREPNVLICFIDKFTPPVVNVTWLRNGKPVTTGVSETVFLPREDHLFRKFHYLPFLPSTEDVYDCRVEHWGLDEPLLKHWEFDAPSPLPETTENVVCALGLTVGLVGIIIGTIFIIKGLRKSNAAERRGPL
# Chain of HLA-DR3 (P01911 30-266): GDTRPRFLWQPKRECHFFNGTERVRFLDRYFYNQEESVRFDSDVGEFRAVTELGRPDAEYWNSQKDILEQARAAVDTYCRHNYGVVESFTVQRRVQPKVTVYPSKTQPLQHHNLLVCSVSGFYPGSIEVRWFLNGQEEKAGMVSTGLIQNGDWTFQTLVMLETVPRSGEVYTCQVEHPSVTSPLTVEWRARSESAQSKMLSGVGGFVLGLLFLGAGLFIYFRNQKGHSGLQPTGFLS
# Chain of HLA-DRw13 (P01903 26-254): as the sequence (P01903 26-254) above
# Chain of HLA-DRw13 (P01911 30-266): as the sequence (P01911 30-266) above
sequence,measurement,setting,value
"IRIQRGPGRAFVTIGK [env 312-327, HIV 1 Env peptide, residues 312-327]",binding of peptide to conventional K^d (in words),H-2K,found to bind
same,^35 S-labeled SC-Kd bound to coated peptide,"SC-K^d -15 [1]; Table 10 (A), peptide 30 μg/ml, pH 9.6, input 10,000 cpm",750 cpm
same,^35 S-labeled SC-Kd bound to coated peptide,"SC-K^d -15 [1]; Table (B), peptide 5 μg/ml, pH 9.6, input 6000 cpm, no coated peptide 228/223",390 cpm
same,binding of peptide to SC-K^d -15 (in words),SC-K^d -15 [1],significant binding
same,binding of peptide to DRw13 positive control (in words),HLA-DRw13,significant binding
same,binding of peptide to HLA-DR3 positive control (in words),HLA-DR3,significant binding
LFIHFRIGCRHSR [vpr 68-80],competition with plastic-bound env 312-327 peptide (in words),SC-K^d -15 [2],competed efficiently
same,^35 S-labeled SC-Kd bound to coated peptide,"SC-K^d -15 [1]; Table 10 (A), peptide 10 μg/ml, pH 5, input 10,000 cpm",710 cpm and 621 cpm
same,binding of peptide to SC-K^d -15 (in words),SC-K^d -15 [1],significant binding
same,^125 I-labeled HLA-DRw13 bound to coated peptide,"HLA-DRw13; Table 10 (A), peptide 10 μg/ml, pH 5, input 200000 cpm, second value of cell, duplicates",21838 cpm and 20593 cpm
same,binding of peptide to DRw13 positive control (in words),HLA-DRw13,significant binding
same,^125 I-labeled HLA-DR3 bound to coated peptide,"HLA-DR3; Table 10 (A), peptide 10 μg/ml, pH 5, input 200000 cpm, first value of cell, duplicates",18582 cpm and 18245 cpm
same,binding of peptide to HLA-DR3 positive control (in words),HLA-DR3,significant binding
